Test results as given in US20260176314.

T1: bovine αS1 casein (variant C) (no signal peptide)
T1 chain: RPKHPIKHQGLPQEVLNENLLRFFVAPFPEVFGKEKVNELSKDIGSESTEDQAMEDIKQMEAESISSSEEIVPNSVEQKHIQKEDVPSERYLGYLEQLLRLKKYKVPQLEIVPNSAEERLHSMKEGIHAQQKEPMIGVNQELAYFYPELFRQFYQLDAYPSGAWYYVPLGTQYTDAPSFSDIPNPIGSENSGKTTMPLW

T2: bovine β casein (variant A2) (no signal peptide)
T2 chain: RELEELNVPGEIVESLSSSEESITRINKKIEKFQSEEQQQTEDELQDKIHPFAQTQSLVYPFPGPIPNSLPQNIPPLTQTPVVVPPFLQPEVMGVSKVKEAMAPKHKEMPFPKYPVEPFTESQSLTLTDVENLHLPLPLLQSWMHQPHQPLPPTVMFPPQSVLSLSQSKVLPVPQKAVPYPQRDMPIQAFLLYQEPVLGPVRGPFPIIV

T3: FLAG_SERPINB14_HiBiT
T3 chain: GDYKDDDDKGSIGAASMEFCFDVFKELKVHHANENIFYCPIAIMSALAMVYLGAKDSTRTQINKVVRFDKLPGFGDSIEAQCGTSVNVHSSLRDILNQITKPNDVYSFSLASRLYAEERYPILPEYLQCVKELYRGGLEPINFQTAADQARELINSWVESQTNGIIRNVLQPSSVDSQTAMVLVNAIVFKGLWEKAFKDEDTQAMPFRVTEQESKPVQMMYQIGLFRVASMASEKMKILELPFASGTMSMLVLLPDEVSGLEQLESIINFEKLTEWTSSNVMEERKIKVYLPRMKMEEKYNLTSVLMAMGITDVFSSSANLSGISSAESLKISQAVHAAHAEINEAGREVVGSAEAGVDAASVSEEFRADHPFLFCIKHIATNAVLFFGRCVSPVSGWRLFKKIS

T4: bovine αS2 casein (no signal peptide)
T4 chain: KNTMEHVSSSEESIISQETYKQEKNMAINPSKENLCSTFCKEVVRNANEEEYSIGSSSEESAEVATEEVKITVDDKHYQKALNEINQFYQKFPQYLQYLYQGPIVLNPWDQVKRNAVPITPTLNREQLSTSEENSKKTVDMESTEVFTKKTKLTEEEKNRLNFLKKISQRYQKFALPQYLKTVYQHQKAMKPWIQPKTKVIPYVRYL

B1: ScMNN2(M1-S36)_Fam20c(D93-R584)_FLAG (protein)
chain: MLLTKRFSKLFKLTFIVLILCGLFVITNKYMDENTSDFSSDPSSNLSSHSLEKLPPAAEPAERALRGRDPGALRPHDPAHRPLLRDPGPRRSESPPGPGGDASLLARLFEHPLYRVAVPPLTEEDVLFNVNSDTRLSPKAAENPDWPHAGAEGAEFLSPGEAAVDSYPNWLKFHIGINRYELYSRHNPAIEALLHDLSSQRITSVAMKSGGTQLKLIMTFQNYGQALFKPMKQTREQETPPDFFYFSDYERHNAEIAAFHLDRILDFRRVPPVAGRMVNMTKEIRDVTRDKKLWRTFFISPANNICFYGECSYYCSTEHALCGKPDQIEGSLAAFLPDLSLAKRKTWRNPWRRSYHKRKKAEWEVDPDYCEEVKQTPPYDSSHRILDVMDMTIFDFLMGNMDRHHYETFEKFGNETFIIHLDNGRGFGKYSHDELSILVPLQQCCRIRKSTYLRLQLLAKEEYKLSLLMAESLRGDQVAPVLYQPHLEALDRRLRVVLKAVRDCVERNGLHSVVDDDLDTEHRAASARDYKDDDDK
B2: Fam20c(M1-R584)_FLAG (protein)
chain: MKMMLVRRFRVLILMVFLVACALHIALDLLPRLERRGARPSGEPGCSCAQPAAEVAAPGWAQVRGRPGEPPAASSAAGDAGWPNKHTLRILQDFSSDPSSNLSSHSLEKLPPAAEPAERALRGRDPGALRPHDPAHRPLLRDPGPRRSESPPGPGGDASLLARLFEHPLYRVAVPPLTEEDVLFNVNSDTRLSPKAAENPDWPHAGAEGAEFLSPGEAAVDSYPNWLKFHIGINRYELYSRHNPAIEALLHDLSSQRITSVAMKSGGTQLKLIMTFQNYGQALFKPMKQTREQETPPDFFYFSDYERHNAEIAAFHLDRILDFRRVPPVAGRMVNMTKEIRDVTRDKKLWRTFFISPANNICFYGECSYYCSTEHALCGKPDQIEGSLAAFLPDLSLAKRKTWRNPWRRSYHKRKKAEWEVDPDYCEEVKQTPPYDSSHRILDVMDMTIFDFLMGNMDRHHYETFEKFGNETFIIHLDNGRGFGKYSHDELSILVPLQQCCRIRKSTYLRLQLLAKEEYKLSLLMAESLRGDQVAPVLYQPHLEALDRRLRVVLKAVRDCVERNGLHSVVDDDLDTEHRAASARDYKDDDDK

Assays:
[1] = target: T1, bovine αS1 casein (variant C) (no …)
[2] = target: T2, bovine β casein (variant A2) (no signal …)
[3] = target: FLAG_TRX_SPP1 (G158-N314)_HiBiT
FLAG_SERPINB14_HiBiT = target: T3, FLAG_SERPINB14_HiBiT
[4] = target: T4, bovine αS2 casein (no signal peptide)

Chain of FLAG_TRX_SPP1 (G158-N314)_HiBiT (chain, as listed by the source): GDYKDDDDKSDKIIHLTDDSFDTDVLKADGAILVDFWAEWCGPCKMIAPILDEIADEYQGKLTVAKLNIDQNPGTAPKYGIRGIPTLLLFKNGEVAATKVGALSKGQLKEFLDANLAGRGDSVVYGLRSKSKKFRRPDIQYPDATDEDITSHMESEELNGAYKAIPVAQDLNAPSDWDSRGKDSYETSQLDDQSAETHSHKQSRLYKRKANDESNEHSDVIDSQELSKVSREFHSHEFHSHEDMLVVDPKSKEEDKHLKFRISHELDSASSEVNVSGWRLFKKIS

| Protein | phosphorylation sites detected by LC-MS/MS after co-expression in Kluyveromyces lactis [1] | phosphorylation sites detected by LC-MS/MS after co-expression in Kluyveromyces lactis [2] | Phosphorylation [3] | phosphorylation sites detected by LC-MS/MS after co-expression in Pichia pastoris (FLAG_SERPINB14_HiBiT) | phosphorylation sites detected by LC-MS/MS after co-expression in Kluyveromyces lactis [4] |
| --- | --- | --- | --- | --- | --- |
| B1 | S56, S61, S63, T64, S79, S81, S82, S83, S90, S103, and S130 | S30, S32, S33, S34, S37, T39, S50, at T56 | Yes | T92, S99, S165, T202, S206, S222, S271, and S345 | S23, S24, S25, S46, S52, S71, S72, S73, S76, T145, S146, S150, S158, and T159 |
| B2 | S61, S63, T64, S79, S81, S82, S83, S90, S103, and S130 | S30, S32, S33, S34, T39, S50, and T56 | – | – | S24, S25, S46, T145, S146, S150, S158, T159, and T163 |
